Ends that are not written are not given here. * marks the point of attachment. Stearoyl = CCCCCCCCCCCCCCCCCC(=O)*; Palmitoyl = CCCCCCCCCCCCCCCC(=O)*; Myristoyl = CCCCCCCCCCCCCC(=O)*; Lauroyl = CCCCCCCCCCCC(=O)*; Dodecyl = CCCCCCCCCCCC*
T1: human GIP receptor (human, UniProt P48546 22-466)
T1 sequence (looked up): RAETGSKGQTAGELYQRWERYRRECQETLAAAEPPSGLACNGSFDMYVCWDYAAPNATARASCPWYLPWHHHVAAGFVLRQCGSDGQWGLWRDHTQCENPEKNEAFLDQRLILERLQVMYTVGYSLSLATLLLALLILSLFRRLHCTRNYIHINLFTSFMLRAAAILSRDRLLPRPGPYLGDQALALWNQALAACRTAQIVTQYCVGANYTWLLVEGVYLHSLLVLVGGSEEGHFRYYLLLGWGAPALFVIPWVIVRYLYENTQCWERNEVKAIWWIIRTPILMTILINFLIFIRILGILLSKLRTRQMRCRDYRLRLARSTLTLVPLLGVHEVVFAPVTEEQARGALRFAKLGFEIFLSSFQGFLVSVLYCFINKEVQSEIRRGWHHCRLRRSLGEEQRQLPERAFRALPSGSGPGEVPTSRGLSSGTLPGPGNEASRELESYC

B1: AT106 [hGIP(3-30)NH2-C16/30] (peptide)
peptide: EGTFISDYSIAMDKIHQQDFVNWLLAQK(Palmitoyl)-NH2
B2: AT115 [hGIP(3-30)NH2-C18/30] (peptide)
peptide: EGTFISDYSIAMDKIHQQDFVNWLLAQK(Stearoyl)-NH2
B3: AT105 [hGIP(3-30)NH2-C16/16] (peptide)
peptide: EGTFISDYSIAMDK(Palmitoyl)IHQQDFVNWLLAQK-NH2
B4: AT113 [hGIP(3-30)NH2-C18/3] (peptide)
peptide: Stearoyl-EGTFISDYSIAMDKIHQQDFVNWLLAQK-NH2
B5: AT112 [hGIP(3-30)NH2-C14/30] (peptide)
peptide: EGTFISDYSIAMDKIHQQDFVNWLLAQK(Myristoyl)-NH2
B6: AT111 [hGIP(3-30)NH2-C14/16] (peptide)
peptide: EGTFISDYSIAMDK(Myristoyl)IHQQDFVNWLLAQK-NH2
B7: AT117 [hGIP(3-30)NH2[H18K]-C16/18] (peptide)
peptide: EGTFISDYSIAMDKIK(Palmitoyl)QQDFVNWLLAQK-NH2
modifications: N-terminus assumed
SMILES: CCCCCCCCCCCCCCCC(=O)NCCCC[C@H](NC(=O)[C@@H](NC(=O)[C@H](CCCCN)NC(=O)[C@H](CC(=O)O)NC(=O)[C@H](CCSC)NC(=O)[C@H](C)NC(=O)[C@@H](NC(=O)[C@H](CO)NC(=O)[C@H](Cc1ccc(O)cc1)NC(=O)[C@H](CC(=O)O)NC(=O)[C@H](CO)NC(=O)[C@@H](NC(=O)[C@H](Cc1ccccc1)NC(=O)[C@@H](NC(=O)CNC(=O)[C@@H](N)CCC(=O)O)[C@@H](C)O)[C@@H](C)CC)[C@@H](C)CC)[C@@H](C)CC)C(=O)N[C@@H](CCC(N)=O)C(=O)N[C@@H](CCC(N)=O)C(=O)N[C@@H](CC(=O)O)C(=O)N[C@@H](Cc1ccccc1)C(=O)N[C@H](C(=O)N[C@@H](CC(N)=O)C(=O)N[C@@H](Cc1c[nH]c2ccccc12)C(=O)N[C@@H](CC(C)C)C(=O)N[C@@H](CC(C)C)C(=O)N[C@@H](C)C(=O)N[C@@H](CCC(N)=O)C(=O)N[C@@H](CCCCN)C(N)=O)C(C)C
B8: AT131 [hGIP(3-30)NH2[D15E; H18A]-C16/16] (peptide)
peptide: EGTFISDYSIAMEK(Palmitoyl)IAQQDFVNWLLAQK-NH2
modifications: N-terminus assumed
SMILES: CCCCCCCCCCCCCCCC(=O)NCCCC[C@H](NC(=O)[C@H](CCC(=O)O)NC(=O)[C@H](CCSC)NC(=O)[C@H](C)NC(=O)[C@@H](NC(=O)[C@H](CO)NC(=O)[C@H](Cc1ccc(O)cc1)NC(=O)[C@H](CC(=O)O)NC(=O)[C@H](CO)NC(=O)[C@@H](NC(=O)[C@H](Cc1ccccc1)NC(=O)[C@@H](NC(=O)CNC(=O)[C@@H](N)CCC(=O)O)[C@@H](C)O)[C@@H](C)CC)[C@@H](C)CC)C(=O)N[C@H](C(=O)N[C@@H](C)C(=O)N[C@@H](CCC(N)=O)C(=O)N[C@@H](CCC(N)=O)C(=O)N[C@@H](CC(=O)O)C(=O)N[C@@H](Cc1ccccc1)C(=O)N[C@H](C(=O)N[C@@H](CC(N)=O)C(=O)N[C@@H](Cc1c[nH]c2ccccc12)C(=O)N[C@@H](CC(C)C)C(=O)N[C@@H](CC(C)C)C(=O)N[C@@H](C)C(=O)N[C@@H](CCC(N)=O)C(=O)N[C@@H](CCCCN)C(N)=O)C(C)C)[C@@H](C)CC
B9: AT143 [hGIP(3-30)NH2[M14L; H18K]-C16/18] (peptide)
peptide: EGTFISDYSIALDKIK(Palmitoyl)QQDFVNWLLAQK-NH2
modifications: N-terminus assumed
SMILES: CCCCCCCCCCCCCCCC(=O)NCCCC[C@H](NC(=O)[C@@H](NC(=O)[C@H](CCCCN)NC(=O)[C@H](CC(=O)O)NC(=O)[C@H](CC(C)C)NC(=O)[C@H](C)NC(=O)[C@@H](NC(=O)[C@H](CO)NC(=O)[C@H](Cc1ccc(O)cc1)NC(=O)[C@H](CC(=O)O)NC(=O)[C@H](CO)NC(=O)[C@@H](NC(=O)[C@H](Cc1ccccc1)NC(=O)[C@@H](NC(=O)CNC(=O)[C@@H](N)CCC(=O)O)[C@@H](C)O)[C@@H](C)CC)[C@@H](C)CC)[C@@H](C)CC)C(=O)N[C@@H](CCC(N)=O)C(=O)N[C@@H](CCC(N)=O)C(=O)N[C@@H](CC(=O)O)C(=O)N[C@@H](Cc1ccccc1)C(=O)N[C@H](C(=O)N[C@@H](CC(N)=O)C(=O)N[C@@H](Cc1c[nH]c2ccccc12)C(=O)N[C@@H](CC(C)C)C(=O)N[C@@H](CC(C)C)C(=O)N[C@@H](C)C(=O)N[C@@H](CCC(N)=O)C(=O)N[C@@H](CCCCN)C(N)=O)C(C)C
B10: AT114 [hGIP(3-30)NH2-C18/16] (peptide)
peptide: EGTFISDYSIAMDK(Stearoyl)IHQQDFVNWLLAQK-NH2
B11: AT110 [hGIP(3-30)NH2-C14/3] (peptide)
peptide: Myristoyl-EGTFISDYSIAMDKIHQQDFVNWLLAQK-NH2
B12: AT107 [hGIP(3-30)NH2[T5W; D15E; H18A]-C16/16] (peptide)
peptide: EGWFISDYSIAMEK(Palmitoyl)IAQQDFVNWLLAQK-NH2
modifications: N-terminus assumed
SMILES: CCCCCCCCCCCCCCCC(=O)NCCCC[C@H](NC(=O)[C@H](CCC(=O)O)NC(=O)[C@H](CCSC)NC(=O)[C@H](C)NC(=O)[C@@H](NC(=O)[C@H](CO)NC(=O)[C@H](Cc1ccc(O)cc1)NC(=O)[C@H](CC(=O)O)NC(=O)[C@H](CO)NC(=O)[C@@H](NC(=O)[C@H](Cc1ccccc1)NC(=O)[C@H](Cc1c[nH]c2ccccc12)NC(=O)CNC(=O)[C@@H](N)CCC(=O)O)[C@@H](C)CC)[C@@H](C)CC)C(=O)N[C@H](C(=O)N[C@@H](C)C(=O)N[C@@H](CCC(N)=O)C(=O)N[C@@H](CCC(N)=O)C(=O)N[C@@H](CC(=O)O)C(=O)N[C@@H](Cc1ccccc1)C(=O)N[C@H](C(=O)N[C@@H](CC(N)=O)C(=O)N[C@@H](Cc1c[nH]c2ccccc12)C(=O)N[C@@H](CC(C)C)C(=O)N[C@@H](CC(C)C)C(=O)N[C@@H](C)C(=O)N[C@@H](CCC(N)=O)C(=O)N[C@@H](CCCCN)C(N)=O)C(C)C)[C@@H](C)CC
B13: AT116 [hGIP(3-30)NH2-C12/18] (peptide)
peptide: EGTFISDYSIAMDKIK(Lauroyl)QQDFVNWLLAQK-NH2
modifications: N-terminus assumed
SMILES: CCCCCCCCCCCC(=O)NCCCC[C@H](NC(=O)[C@@H](NC(=O)[C@H](CCCCN)NC(=O)[C@H](CC(=O)O)NC(=O)[C@H](CCSC)NC(=O)[C@H](C)NC(=O)[C@@H](NC(=O)[C@H](CO)NC(=O)[C@H](Cc1ccc(O)cc1)NC(=O)[C@H](CC(=O)O)NC(=O)[C@H](CO)NC(=O)[C@@H](NC(=O)[C@H](Cc1ccccc1)NC(=O)[C@@H](NC(=O)CNC(=O)[C@@H](N)CCC(=O)O)[C@@H](C)O)[C@@H](C)CC)[C@@H](C)CC)[C@@H](C)CC)C(=O)N[C@@H](CCC(N)=O)C(=O)N[C@@H](CCC(N)=O)C(=O)N[C@@H](CC(=O)O)C(=O)N[C@@H](Cc1ccccc1)C(=O)N[C@H](C(=O)N[C@@H](CC(N)=O)C(=O)N[C@@H](Cc1c[nH]c2ccccc12)C(=O)N[C@@H](CC(C)C)C(=O)N[C@@H](CC(C)C)C(=O)N[C@@H](C)C(=O)N[C@@H](CCC(N)=O)C(=O)N[C@@H](CCCCN)C(N)=O)C(C)C
B14: AT130 [hGIP(3-30)NH2[D15E; H18A]-C12/30] (peptide)
peptide: EGTFISDYSIAMEKIAQQDFVNWLLAQK(Dodecyl)-NH2

Target: T1, human GIP receptor
Assay: cell-based or functional assay

Binder | cAMP agonism, EC50 (log) | cAMP agonism, Emax | cAMP agonism, nM (EC50) | cAMP antagonism, log (IC50) | cAMP antagonism, nM (IC50)
B1 | -6.4 log M | 64% | 390 nM |  | 
B2 | -6.9 log M |  | 134 nM |  | 
B3 | -5.9 log M | 34% | 1140 nM | -7.6 log M | 24 nM
B4 | -8 log M | 77% | 9.9 nM |  | 
B5 | -5.4 log M | 29% | 3950 nM |  | 
B6 |  | 0% |  | -7.6 log M | 22 nM
B7 |  | 0% |  | -7.8 log M | 15 nM
B8 | -4.9 log M | 35% | 11800 nM | -7.4 log M | 65 nM
B9 | -6.3 log M | 40% | 521 nM | -7.8 log M | 15.1 nM
B10 | -5.5 log M | 39% | 2960 nM | -7.2 log M | 46 nM
B11 | -8.4 log M | 64% | 3.6 nM |  | 
B12 | -5.9 log M | 23% | 1300 nM | -7.1 log M | 77 nM
B13 |  | 0% |  | -7.9 log M | 12 nM
B14 | -5.1 log M | 49% | 8690 nM |  | 
